The assay concerns the target FcγRIIIA (CD16A) on transduced Jurkat cells (human) (UniProt P08637). Description: cell-based or functional assay. Set-up: EC50, NFAT-luciferase reporter in CD16A Jurkat cells with RMF-pulsed T2 cells (reverse signaling): unit not given beside the values.

Sequence of FcγRIIIA (CD16A) on transduced Jurkat cells (human) (P08637 17-254): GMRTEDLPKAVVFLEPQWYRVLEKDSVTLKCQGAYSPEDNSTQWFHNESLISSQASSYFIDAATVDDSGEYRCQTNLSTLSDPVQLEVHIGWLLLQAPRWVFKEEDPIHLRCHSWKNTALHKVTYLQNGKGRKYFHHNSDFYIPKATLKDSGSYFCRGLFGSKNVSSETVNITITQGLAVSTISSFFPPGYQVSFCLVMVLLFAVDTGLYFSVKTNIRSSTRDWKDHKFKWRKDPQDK

In the case of “ESK1 containing D265A/P329A mutations in the Fc domain (ESK1 DAPA) (antibody)”, the EC50, NFAT-luciferase reporter in CD16A Jurkat cells with RMF-pulsed T2 cells (reverse signaling) was over 10000.
As to “ESKM having 100% reduction in fucosylation (GlymaxX technology) (antibody)”, the EC50, NFAT-luciferase reporter in CD16A Jurkat cells with RMF-pulsed T2 cells (reverse signaling) was determined as 0.17 and the fold decrease in EC50 relative to wildtype ESK1, CD16A reporter amounted to 5 fold.

The record behind these values is patent US20160369006A1.
